From patent publication US5733874A, “Stable dry powders” (Novartis Corp., priority 1994, dated 1998)

Test: RP-HPLC chromatogram of recombinant hirudin HV1 in water (FIG. 1)
Assay type: physicochemical
Conditions: 1 mg/ml hirudin in water
Description: RP-HPLC method: A LiChroCART 125-4 column is used (Merck LiChrospher 100 RP-18 5pm). Solvent A is 0.5% ammoniumacetate in acetonitrile/water (10:90), (v:v); solvent B is 0.5% ammoniumacetate in acetonitrile/water (25:75). The elution is performed at 45° C. using a flow rate of 0.5 ml/min. The binary elution is a linear gradient starting at time zero with 23% solvent B and reaching 46% solvent B after 24 minutes. After 2 min at 70% solvent B the column is equilibrated for 7 rain at 23% solvent B.
A typical chromatogram of recombinant hirudin HV1 (CGP 39393) in water using the RP-HPLC (1 mg/ml hirudin) method is shown in FIG. 1.
In FIG. 1, the relative area of the main peak is 95.15%. Storage of hirudin in water at room temperature results in an increase of by products with time. […] The changes which occur can be accelerated by using temperature stress experiments i.e. by storage at elevated temperatures.

desulphatohirudin HV1 [CGP 39393]
relative area of the main peak: 95.15%
